Source: paper PMC8580317
Where “and” joins values, the source holds several entries; their conditions need not be identical. Equal entries are not always repeated.

How the values were obtained:
FZD5 CRD = FZD5 CRD (UniProt Q13467); conditions: cited from earlier work
[1] = target: Nluc-FZD6-K466K-Cy3 sensor (human) (UniProt O60353)
[2] = target: Nluc-FZD6-K466K-Cy3 sensor (human) (UniProt O60353); remark: listed apart in the source
[3] = target: T1, Nluc-FZD6-Q171K-Cy3 sensor (human) (UniProt O60353)
T1 sequence (chain, trans-cyclooct-2-ene-L-lysine (TCO*K) at 171, labelled with Tet-Cy3): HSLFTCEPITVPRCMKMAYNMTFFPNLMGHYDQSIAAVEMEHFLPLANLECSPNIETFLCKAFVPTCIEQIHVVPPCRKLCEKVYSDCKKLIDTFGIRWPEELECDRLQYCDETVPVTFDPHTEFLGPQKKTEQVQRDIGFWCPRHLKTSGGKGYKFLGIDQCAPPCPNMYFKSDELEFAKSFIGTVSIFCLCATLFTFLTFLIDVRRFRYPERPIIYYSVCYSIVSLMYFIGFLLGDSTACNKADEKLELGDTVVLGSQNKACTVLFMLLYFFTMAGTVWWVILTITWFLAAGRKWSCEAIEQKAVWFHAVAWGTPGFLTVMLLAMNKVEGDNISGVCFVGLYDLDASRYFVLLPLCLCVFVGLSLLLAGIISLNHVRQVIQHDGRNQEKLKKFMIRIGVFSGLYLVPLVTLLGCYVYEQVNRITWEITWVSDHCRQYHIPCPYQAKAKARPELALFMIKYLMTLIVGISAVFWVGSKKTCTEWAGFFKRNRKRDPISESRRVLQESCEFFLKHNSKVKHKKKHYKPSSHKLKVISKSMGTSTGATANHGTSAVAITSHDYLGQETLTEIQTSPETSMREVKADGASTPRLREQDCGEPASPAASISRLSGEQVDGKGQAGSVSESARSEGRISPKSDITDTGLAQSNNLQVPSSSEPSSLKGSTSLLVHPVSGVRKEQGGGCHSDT

[4] = target: Nluc-FZD6-K466K-Cy3 sensor (human) (UniProt O60353); remark: listed apart in the source
[5] = target: T2, Nluc-FZD6-K466K-Cy3 dimer mutant (D365A/R368A/Y369A) (human) (UniProt O60353)
T2 sequence (chain, trans-cyclooct-2-ene-L-lysine (TCO*K) at 466, labelled with Tet-Cy3): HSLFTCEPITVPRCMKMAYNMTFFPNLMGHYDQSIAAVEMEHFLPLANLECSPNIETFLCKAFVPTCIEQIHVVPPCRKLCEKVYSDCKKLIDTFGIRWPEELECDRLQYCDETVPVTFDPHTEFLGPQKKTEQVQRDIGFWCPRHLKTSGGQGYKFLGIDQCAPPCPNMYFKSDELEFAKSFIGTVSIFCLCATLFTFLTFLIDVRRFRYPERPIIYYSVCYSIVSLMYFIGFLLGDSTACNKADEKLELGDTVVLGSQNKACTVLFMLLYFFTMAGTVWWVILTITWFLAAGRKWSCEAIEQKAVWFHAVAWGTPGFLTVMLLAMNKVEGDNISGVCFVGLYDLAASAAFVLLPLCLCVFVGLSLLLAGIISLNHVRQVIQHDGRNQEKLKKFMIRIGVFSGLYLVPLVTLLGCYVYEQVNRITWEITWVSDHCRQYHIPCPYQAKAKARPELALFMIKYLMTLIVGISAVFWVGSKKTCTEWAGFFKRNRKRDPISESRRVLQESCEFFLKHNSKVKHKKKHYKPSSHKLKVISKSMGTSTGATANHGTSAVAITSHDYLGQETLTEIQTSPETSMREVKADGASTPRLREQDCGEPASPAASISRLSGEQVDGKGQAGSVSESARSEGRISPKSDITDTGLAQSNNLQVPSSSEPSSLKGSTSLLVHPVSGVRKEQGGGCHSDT

[6] = target: Nluc-FZD5-Q493K-Cy3 sensor (human) (UniProt Q13467)

For WNT-3A (from UniProt P56704), the Kd (FZD5 CRD) is given as 3.1 nM.

B1: recombinant WNT-5A (ligand)
chain: IIGAQPLCSQLAGLSQGQKKLCHLYQDHMQYIGEGAKTGIKECQYQFRHRRWNCSTVDNTSVFGRVMQIGSRETAFTYAVSAAGVVNAMSRACREGELSTCGCSRAARPKDLPRDWLWGGCGDNIDYGYRFAKEFVDARERERIHAKGSYESARILMNLHNNEAGRRTVYNLADVACKCHGVSGSCSLKTCWLQLADFRKVGDALKEKYDSAAAMRLNSRGKLVQVNSRFNSPTTQDLVYIDPSPDYCVRNESTGSLGTQGRLCNKTSEGMDGCELMCCGRGYDQFKTVQTERCHCKFHWCCYVKCKKCTEIVDQFVCK
In the case of B1, the EC50 of the WNT-5A-induced BRET signal of the sensor (concentration-response curve), HEK293T cells [1] is reported as 22.4 nM and 850 ng/ml, the fitted maximal ∆BRET amplitude of the Cy3-labelled sensor upon WNT-5A (3 μg/ml), HEK293T cells [2] is reported as -26.4% and the fitted maximal ∆BRET amplitude of the Cy3-labelled sensor upon WNT-5A (3 μg/ml), HEK293T cells [3] is reported as -11.6%. The fitted plateau of the WNT-5A-induced BRET response of the sensor (experiment beside the dimer mutant), HEK293T cells [4] was -19.7%, the fitted plateau of the WNT-5A-induced BRET response of the sensor, HEK293T cells [5] was -10.2% and the maximal ∆BRET amplitude of the Cy3-labelled sensor upon WNT-5A (3 μg/ml), HEK293T cells [6] was -15.6%.
